T1: nrgbx (UniProt Q02297-6 2-246, limits assumed)
T1 sequence (looked up): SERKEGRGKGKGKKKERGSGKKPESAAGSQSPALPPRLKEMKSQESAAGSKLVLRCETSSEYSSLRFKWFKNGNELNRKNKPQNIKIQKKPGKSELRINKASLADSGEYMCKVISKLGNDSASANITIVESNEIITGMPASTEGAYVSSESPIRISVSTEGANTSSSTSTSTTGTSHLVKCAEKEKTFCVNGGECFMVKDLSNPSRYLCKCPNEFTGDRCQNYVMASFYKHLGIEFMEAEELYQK

T2: VEGF-B (UniProt P49765-2 22-188)
T2 sequence (looked up): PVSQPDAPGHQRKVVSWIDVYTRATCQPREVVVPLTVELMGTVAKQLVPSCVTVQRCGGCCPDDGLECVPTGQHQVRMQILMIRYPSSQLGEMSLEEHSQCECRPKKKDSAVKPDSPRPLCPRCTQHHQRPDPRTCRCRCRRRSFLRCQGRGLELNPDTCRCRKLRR

T3: PIGF (UniProt P49763-2 21-149)
T3 construct: also called placental growth factor
T3 sequence (looked up): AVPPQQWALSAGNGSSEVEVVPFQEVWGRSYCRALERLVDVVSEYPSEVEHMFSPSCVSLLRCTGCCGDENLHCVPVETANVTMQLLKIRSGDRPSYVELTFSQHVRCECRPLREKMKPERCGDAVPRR


Legend:
nrgbx [1] = target: T1, nrgbx; assay: cell-based or functional assay
IGF-1 [2] = target: T4, IGF-1 (UniProt P05019 49-118); assay: SPR, without VEGF; absence of VEGF
T4 construct: Biotinylated IGF-1 is written as the same molecule; also called biotinylated IGF-1; IGF-1-bio
Method: (§1) Biacore binding was performed at David Myszka's laboratory at the University of Utah or at the Genomic Research Center at Academia Sinica. Surfaces of binding protein chimera were made via chemical immobilization on a CM4 chip using standard amine coupling chemistry. […] Excess surface carboxyl activated sites on all four flow cells was blocked using the doubly positively charged species ethylenediamine. Binding experiments (but not immobilizations) in HBS-P (10 mM HEPES pH 7.4, 150 mM NaCl, 0.05% P20), The HBS-P was supplemented with BSA at 0.2 mg/mL, or HBS-P was supplemented with 500 mM NaCl (650 mM NaCl, final concentration). Analytes were also reconstituted in the corresponding buffer. All experiments were performed at 25° C. 1/150 dilutions of phosphoric acid were used to regenerate IGFBP3-Fc surfaces and a sequence of 3 M MgCl₂ followed by 5 M GuCl was used to regenerate surfaces immobilized with growth factor. Dissociation constants reported below used immobilized binding protein unless noted. Differences between binding constants may be expected between growth factor immobilization and chimera immobilization.
(§2) To further examine the nature of the VEGF and IGF binding to chimera A, simultaneous binding was examined using the surface plasmon resonance.

IGF-1 [3] = target: T4, IGF-1; assay: Biacore SPR, chimera immobilised
Method: as §1
(§3) We selected his3t33Fc and chimera A for further analysis and examined their growth factor binding by Biacore and ELISA competition assays.

IGF-2 = IGF-2 (UniProt P01344 25-91); assay: Biacore SPR, chimera immobilised
Method: as §1, §3

nrgbx [4] = target: T1, nrgbx; assay: Biacore SPR, chimera immobilised
Method: as §1, §3

VEGF-B = target: T2, VEGF-B; assay: Biacore SPR, chimera immobilised
Method: as §1, §3

PIGF = target: T3, PIGF; assay: Biacore SPR, chimera immobilised
Method: as §1, §3

TGF-α = TGF-α (UniProt P01135 40-89); assay: Biacore SPR, chimera immobilised
Method: as §1, §3

mIGF-1 = mIGF-1 (UniProt P05017 49-118); assay: Biacore SPR, chimera immobilised
Method: as §1, §3

mIGF-2 = mIGF-2 (UniProt P09535 25-91); assay: Biacore SPR, chimera immobilised
Method: as §1, §3

bFGF [5] = target: T5, bFGF (UniProt P09038 143-288, limits assumed); assay: Biacore SPR, growth factor immobilised
T5 construct: also called basic fibroblast growth factor
Method: as §1, §3

HGF = target: T6, HGF (UniProt P14210 32-728); assay: Biacore SPR, growth factor immobilised
T6 construct: also called hepatocyte growth factor
Method: as §1, §3

IGF-1 [6] = target: T4, IGF-1; assay: SPR, in the presence of 3 nM VEGF; presence of 3 nM VEGF
Method: as §1, §2

VEGF [7] = target: T7, VEGF (UniProt P15692-4 27-191); assay: Biacore SPR, chimera immobilised; footnote: the kd is very low and difficult to measure
Method: as §1, §3

IGF-1 [8] = target: T4, IGF-1; assay: biotinylated IGF-1 ELISA on Fc-captured chimera, 4 C PBS control (the reference); experiment 3-192
Method: (§4) Plates were coated with goat anti-human Fc antibody, blocked and then incubated with chimera as in the Fc ELISA. Biotinylated IGF-1 (GroPep) or VEGF-Biotin (R&D Systems VEGF biotinylated with sulfo-NHS-LC-biotin as per instructions (Pierce) was added for 2 hours followed by streptavidin-HRP (Jackson Immunoresearch) for 30 minutes. Chromogenic development with tetramethyl benzidine was performed as described above.
(§5) To test the stability of the present chimeras, some purified chimeras (see, Table 4) were incubated with PBS or a conditioned medium from the MCF-7 cell line overnight at 37° C. and PBS overnight at 4° C. The IGF-1 binding and VEGF binding were measured using the biotinylated IGF-1 and VEGF.

IGF-1 [9] = target: T4, IGF-1; assay: biotinylated IGF-1 ELISA on Fc-captured chimera, after overnight in PBS at 37 C, against the 4 C PBS control; experiment 3-192
Method: as §4, §5

IGF-1 [10] = target: T4, IGF-1; assay: biotinylated IGF-1 ELISA on Fc-captured chimera, after overnight in MCF-7 conditioned medium at 37 C, against the 4 C PBS control; experiment 3-192
Method: as §4, §5

IGF-1 [11] = target: T4, IGF-1; assay: Biacore SPR; experiment 4-79
Method: as §1

VEGF [12] = target: T7, VEGF; assay: Biacore SPR, chimera immobilised
Method: as §1, §3

bFGF [13] = target: T5, bFGF; assay: Biacore SPR, immobilised bFGF; experiment 4-79
Method: as §1

bFGF [14] = target: T5, bFGF; assay: Biacore SPR, growth factor immobilised; growth factor immobilised
IGF-1 [15] = target: T4, IGF-1; assay: biotinylated IGF-1 ELISA on Fc-captured chimera, 4 C PBS control (the reference); experiment 4-81
Method: as §4, §5

IGF-1 [16] = target: T4, IGF-1; assay: biotinylated IGF-1 ELISA on Fc-captured chimera, after overnight in PBS at 37 C, against the 4 C PBS control; experiment 4-81
Method: as §4, §5

IGF-1 [17] = target: T4, IGF-1; assay: biotinylated IGF-1 ELISA on Fc-captured chimera, after overnight in MCF-7 conditioned medium at 37 C, against the 4 C PBS control; experiment 4-81
Method: as §4, §5

T4 sequence (P05019 49-118 limits assumed): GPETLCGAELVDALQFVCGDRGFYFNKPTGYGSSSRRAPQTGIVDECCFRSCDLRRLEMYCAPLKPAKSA
T5 sequence (P09038 143-288 limits assumed): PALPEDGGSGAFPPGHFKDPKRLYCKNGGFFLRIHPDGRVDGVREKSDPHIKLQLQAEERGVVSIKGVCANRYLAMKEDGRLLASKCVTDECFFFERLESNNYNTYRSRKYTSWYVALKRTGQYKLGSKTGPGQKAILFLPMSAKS
Chain of mIGF-2 (P09535 25-91 limits assumed): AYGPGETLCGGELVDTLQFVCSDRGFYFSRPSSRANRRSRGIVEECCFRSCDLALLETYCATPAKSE
Chain of TGF-α (P01135 40-89 limits assumed): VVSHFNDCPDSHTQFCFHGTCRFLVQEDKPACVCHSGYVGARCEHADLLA
Chain of mIGF-1 (P05017 49-118 limits assumed): as the sequence (P05019 49-118 limits assumed) above, with D20P, S35I, A67T, S69A counted along it
Chain of IGF-2 (P01344 25-91 limits assumed): as the sequence (P09535 25-91 limits assumed) above, with G3R, G5S, S22G, S32A, A35V, N36S counted along it
T7 sequence (P15692 other isoform, or with tags, fused parts or gaps limits assumed): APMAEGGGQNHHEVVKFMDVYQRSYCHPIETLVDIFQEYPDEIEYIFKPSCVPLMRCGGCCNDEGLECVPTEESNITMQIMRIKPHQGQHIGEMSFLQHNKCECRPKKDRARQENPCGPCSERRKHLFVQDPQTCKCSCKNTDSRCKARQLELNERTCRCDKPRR
T6 sequence (P14210 32-728 limits assumed): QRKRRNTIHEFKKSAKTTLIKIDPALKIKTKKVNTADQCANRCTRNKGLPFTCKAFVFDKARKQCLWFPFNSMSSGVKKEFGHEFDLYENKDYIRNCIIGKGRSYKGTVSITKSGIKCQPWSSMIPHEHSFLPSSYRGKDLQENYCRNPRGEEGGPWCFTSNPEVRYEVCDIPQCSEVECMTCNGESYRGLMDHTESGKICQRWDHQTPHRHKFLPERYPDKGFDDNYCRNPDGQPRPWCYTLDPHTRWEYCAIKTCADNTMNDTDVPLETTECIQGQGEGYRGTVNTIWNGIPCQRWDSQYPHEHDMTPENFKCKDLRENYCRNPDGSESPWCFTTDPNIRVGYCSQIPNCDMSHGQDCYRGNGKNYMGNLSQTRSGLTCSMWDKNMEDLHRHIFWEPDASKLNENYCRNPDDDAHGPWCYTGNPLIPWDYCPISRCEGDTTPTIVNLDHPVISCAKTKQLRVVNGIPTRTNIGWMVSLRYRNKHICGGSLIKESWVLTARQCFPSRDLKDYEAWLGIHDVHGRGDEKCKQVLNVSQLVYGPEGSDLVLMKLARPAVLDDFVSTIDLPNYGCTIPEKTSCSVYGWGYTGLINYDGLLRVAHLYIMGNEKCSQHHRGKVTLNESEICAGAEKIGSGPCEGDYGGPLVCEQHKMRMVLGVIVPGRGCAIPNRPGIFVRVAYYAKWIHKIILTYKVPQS

Kd (IGF-1 [3]) [nM]	Kd (IGF-2) [nM]	Kd (nrgbx [4]) [nM]	Kd (VEGF-B) [nM]	Kd (mIGF-1) [nM]	Kd (mIGF-2) [nM]	Kd (HGF) [nM]	IGF-1 binding remaining over controls (IGF-1 [8]) [%]	IGF-1 binding remaining over controls (IGF-1 [9]) [%]	IGF-1 binding remaining over controls (IGF-1 [10]) [%]	Binder	further results
0.0245	0.0389	4.88	0.5	0.137	0.0513	0.0218	100	94	77	IGFBP3-Fc-VEGF-1 (Fc fusion, IGFBP3 with linker deletion 1 - gly 3 linker - v1v2 (VEGFR1 domain 2, VEGFR2 domain 3) - Fc; dimeric; also called chimera A; chimeraA) GASSAGLGPVVRCEPCDARALAQCAPPPAVCAELVREPGCGCCLTCALSEGQPCGIYTERCGSGLRCQPSPDEARPLQALLDGRGLCVNASAVSKGHAKDSQRYKVDYESQSTDTQNFSSESKRETEYGPCRREMEDTLNHLKFLNVLSPRGVHIPNCDKKGFYKKKQCRPSKGRKRGFCWCVDKYGQPLPGYTTKGKEDVHCYSMQSKAPPAPGNASESEEDRSAGIYIFISDTGRPFVEMYSEIPEIIHMTEGRELVIPCRVTSPNITVTLKKFPLDTLIPDGKRIIWDSRKGFIISNATYKEIGLLTCEATVNGHLYKTNYLTHRQGYRIYDVVLSPSHGIELSVGEKLVLNCTARTELNVGIDFNWEYPSSKHQHKKLVNRDLKTQSGSEMKKFLSTLTIDGVTRSDQGLYTCAASSGLMTKKNSTFVRVHEKVECPPCPAPPVAGPSVFLFPPKPKDQLMISRTPEVTCVVVDVSHEDPEVKFNWYVDGVEVHNAKTKPREEQYNSTYRVVSVLTVLHQDWLNGKEYKCKVSNKGLPSSIEKTISKAKGQPREPQVYTLPPSREEMTKNQVSLTCLVKGFYPSDIAVEWESNGQPENNYKTTPPVLDSDGSFFLYSKLTVDKSRWQQGNVFSCSVMHEGLHNHYTQKSLSLSPGK	IC50 in inhibiting neuregulin-induced proliferation (nrgbx [1]): 47 nM; Kd (IGF-1 [2]): 0.4 nM; Kd (PIGF): 0.999 nM; Kd (TGF-α): 9250 nM; Kd (bFGF [5]): 1.92 nM; Kd (IGF-1 [6]): 0.2 nM; Kd (VEGF [7]): 0.0038 nM
0.161	0.174	5.98	3	0.21	0.14	0.608	100	99	54	IGFBP3-Fc-1 (Fc fusion, IGFBP3 with IGFBP3 linker deletion 1 (55 amino acids deleted from the linker region), fused to Fc; dimeric; also called h3t33fc; his3t33fc) GASSAGLGPVVRCEPCDARALAQCAPPPAVCAELVREPGCGCCLTCALSEGQPCGIYTERCGSGLRCQPSPDEARPLQALLDGRGLCVNASAVSKGHAKDSQRYKVDYESQSTDTQNFSSESKRETEYGPCRREMEDTLNHLKFLNVLSPRGVHIPNCDKKGFYKKKQCRPSKGRKRGFCWCVDKYGQPLPGYTTKGKEDVHCYSMQSKVECPPCPAPPVAGPSVFLFPPKPKDQLMISRTPEVTCVVVDVSHEDPEVKFNWYVDGVEVHNAKTKPREEQYNSTYRVVSVLTVLHQDWLNGKEYKCKVSNKGLPSSIEKTISKAKGQPREPQVYTLPPSREEMTKNQVSLTCLVKGFYPSDIAVEWESNGQPENNYKTTPPVLDSDGSFFLYSKLTVDKSRWQQGNVFSCSVMHEGLHNHYTQKSLSLSPGK	Kd (IGF-1 [11]): 0.575 nM; binding result (VEGF [12]): no binding; binding result (TGF-α): no binding; Kd (bFGF [13]): 13.3 nM; Kd (bFGF [14]): 13 nM; IGF-1 binding remaining over controls (IGF-1 [15]): 100%; IGF-1 binding remaining over controls (IGF-1 [16]): 101%; IGF-1 binding remaining over controls (IGF-1 [17]): 51%

— patent publication US20190359666A1 (ACADEMIA SINICA, published 2019)
